B1: TPR t1 (parent)
chain: GACCAAUCUGCCCUCAGAGCUCGAGAACAUCUUCGGAUGCAGAGGAGGCAGGCUUCGGUGGCGCGAUAGCGCCAACGUCCUCAACCUCCAAUGCAUCCCACCACAUGAUGAUGCCUGAAGAGCCUUGGUUUUUUG

Variants of: B1
Assay: polymerase ribozyme fitness, log enrichment relative to wild type (log ratio); higher = more active; in vitro selection for triplet polymerase activity
In short: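 A single round of triplicate in vitro selection, including frozen incubation at −7 °C, was applied to PCR-built, transcribed mutant libraries of each subunit of a heterodimeric triplet polymerase ribozyme. Illumina sequencing of input and output libraries retained genotypes with ≥10 input reads and ≥1 read per output. Fitness is the base-2 logarithm of genotype enrichment divided by wild-type enrichment, from inverse-variance-weighted replicate averages.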

| Variant | polymerase ribozyme fitness (log ratio) |
| --- | --- |
| GACCAAUCUGCCCUCAGAGCUCGAGAACAUCUUCGGAUGCAUAGGAGGCAGGCUUCGGUGGCGCGAUAGCGCCAACGUCCUCAACCUCCAAUGCAUCCCACCACAUGAUGAUGCCUGAAGAGCGUUGGUUUUUUC [G42U C124G G135C] | 0.643 |
| GACCAAUCUGCCCUCAGAGCUCGAGAACAUCUUCGGAUGCAUAGGAGGCAGGCUUCGGUGCCGCGAUAGCGCCAACGUCCUCAACCUCCAAUGCAUCCCACCACAUGAUGAUGCCUGAAGAGCCUUGGUUUUUUG [G42U G61C] | -3.59 |
| GACCAAUCUGCCCUCAGAGCUCGAGAACAUCUUCGGAUGCAUAGGAGGCAGGCUUCGGUGGCGCGAUAGCGCCAACGUCUUCAACCUCCAAUGCAUCCCACCACAUGAUGAUGCCUGAAGAGCCUUGGUUUUUUG [G42U C80U] | -2.21 |
| GACCAAUCUGCCCUCAGAGCUCGAGAACAUCUUCGGAUGCAUAGGAGGCAGGCUUCGGUGGCGCGAUAGCGCAAACGUCCUCAACCUCCAAUGCAUCCUACCACAUGAUGAUGCCUGAAGAGCCUUGGUUUUUUG [G42U C73A C99U] | -6.29 |
| GACCAAUCUGCCCUCAGAGCUCGAGAACAUCUUCGGAUGCAUAGGAGACAGGCUUCGGUGGCGCGAUAGCGCCAACGUCCUCAACCUCCAAUGCAUCCCACCACAUGAUCGUGCCUGAAGAGCCUUGGUUUUUUG [G42U G48A G110C A111G] | -6.19 |
| GACCAAUCUGCCCUCAGAGCUCGAGAACAUCUUCGGAUGCAUAGGAGGCAGGCUUCGGUGGUGCGAUAGCGCCAACGUCCUCAACCUCCAAUGCAUCCCACCACAUGAUGAUGCCUGAAGAGCCUUGGUUUUUUG [G42U C62U] | -1.69 |
| GACCAAUCUGCCCUCAGAGCUCGAGAACAUCUUCGGAUGCAUAGCAGGCAGGCUUCGGUGGCGCGAUAGCGCCAAUGUCCUCAACCUCCAAUGCAUCCCACCACAUGAUGAUGCCUGAAGAGCCUUGGUUUUUUG [G42U G45C C76U] | -2.43 |
| GACCAAUCUGCCCUCAGAGCUCGAGAACAUCUUCGGAUGCAUAGGAGGCAGGCUUCGGUGGCGCGAUAGCGCCAACGUCCUCAACCUGCAAUGCAUCCCAACACAUGAUGAUGCCUGAACAGCCUUGGUUUUUUG [G42U C88G C101A G120C] | -3.53 |
| GACCAAUCUGCCCUCAGAGCUCGAGAACAUCUUCGGAUGCAGCGGAGGCAGGCUUCGGUGGUGCGAUAGCGCCAACGUCCUCAGCCUCCAAUGCAUCCCACCACAUGAUGAUGCCUGAAGAGCCUUGGUUUUUUG [A43C C62U A84G] | -5.86 |
| GACCAAUCUGCCCUCAGAGCUCGAGAACAUCUUCGGAUGCAUAGCAGGCAGGCUUCGGUGGCGCGAUAGUGCCAACGUCCUCGACCUCCAAUGCAUCCCACCACAUGAUGAUGCCUGAAGAGCCUUGGUUUUUUG [G42U G45C C70U A83G] | -5.2 |
| GACCAAUCUGCCCUCAGAGCUCGAGAACAUCUUCGGAUGCAUAGGAGGCAGGCUUCGGAGGGGCGAUAGCGCCAACGUCCUCAACCUGCUAUGCAUCUCACCACAUGAUGAUGCCUGAAGAGCCUUGGUUUUUUG [G42U U59A C62G C88G A90U C98U] | -7.74 |
| GACCAAUCUGCCCUCAGAGCUCGAGAACAUCUUCGGAUGCAUAGGAGGCAGGCUUCGGUGGCGCGAUAGCGCCAACGUCCUCAACCUCCAAUGCAUCCCACCACAUGAUUAUGCCUGAAGAGCCUUGGUUUUUUG [G42U G110U] | -3.71 |
| GACCAAUCUGCCCUCAGAGCUCGAGAACAUCUUCGGAUGCAUAGGAGGCAGGCUUCGGUGGCGCGAUAGCGCCAACGCCCUCAACCUCCAAUGGAUCCCCCCACAUGAUGAUGCCUGAAGAGCCUUGGUUUUUUG [G42U U78C C94G A100C] | -4.78 |
| GACCAAUCUGCCCUCAGAGCUCGAGAACAUCUUCGGAUGCAUAGAAGGCAGGCUUCGGUGGCGCGAUAGCGCCAACGUCCUCAACCUCCAAUGCAUCCCACCACAUGAUCAUGCCUGAAGAGCCUUGGUUUUUUG [G42U G45A G110C] | -5.34 |
| GACCAAUCUGCCCUCAGAGCUCGAGAACAUCUUCGGAUGCAGCGGUGGCAGGCUUCGGUGGCGCGAUAGCGCCAACGUCCUCAACCUCCAAUGCAUCCCACCACAUGAUGAUGCCUGAAGAGCCUUGGUUUUUUG [A43C A46U] | -2.91 |
| GACCAAUCUGCCCUCAGAGCUCGAGAACAUCUUCGGAUGCAUAGGAGGCAGGCUUCGGUGGCGCGAUAGCGCCAACGCCCUCAACCUACAAAGCAUCCCACCACAUGAUGAUGCCUGAAAAGCCUUGGUUUUUUG [G42U U78C C88A U92A G120A] | -1.83 |
| GACCAAUCUGCCCUCAGAGCUCGAGAACAUCUUCGGAUGCAUAGGAGGCAGGCUUCGGUGGCUCGAUAGCGCCAACGUCCUCAACCUCCAAUGCAUCCCACCACAUGAUGAUGCCUGAAGAGCCUUGGUUUUUUG [G42U G63U] | -3.48 |
| GACCAAUCUGCCCUCAGAGCUCGAGAACAUCUUCGGAUGCAUAGCAGGCGGGCUUCGGUGGCGCGAUAGCGCCAACGUCCUUAACCUCCAAUGCAUCCCACCACAUGAUGAUGCCUGAAGGGCCUUGGUUUUUUG [G42U G45C A50G C82U A121G] | 0.685 |
| GACCAAUCUGCCCUCAGAGCUCGAGAACAUCUUCGGAUGCAUAGGACGCAGGCUUCGGUGGCGCGAUAGCGCCAACGUCCUCAACCUCCAAUGCAUCCCACAACAUGAUGAGGCCUGAAUAGCCUUGGUUUUUUG [G42U G47C C102A U112G G120U] | -6.76 |
| GACCAAUCUGCCCUCAGAGCUCGAGAACAUCUUCGGAUGCAUAGGAGGCAGGCUUCUGUGGCGCGAUAGCGCCAACGUCCUCAACCUCCAAUGCAUCCCACCACAUGAUGAUGCCUGAAGAGCCUUGGUUUUUUG [G42U G57U] | -1.5 |
| GACCAAUCUGCCCUCAGAGCUCGAGAACAUCUUCGGAUGCAUAGGAGGCAGGCUUCGGUGGCGCGAUAGCGCCAACGUCCUCAACCUCCAAUGCAUCCCACAACAUGAUGAUGCCUGAAGAGCCUUGGUUUUUUG [G42U C102A] | -5.37 |

| Variant | polymerase ribozyme fitness (log ratio) |
| --- | --- |
| GACCAAUCUGCCCUCAGAGCUCGAGAACAUCUUCGGAUGCAUAGGAGGCAGGCUUCGGUGGUGUGAUAGCGCCAACGUCCUCAGCCUCCAAUGCAUCCCACCACAUGAUGAUGCCUGAAGAGCCUUGGUUUUUUG [G42U C62U C64U A84G] | -4.19 |
| GACCAAUCUGCCCUCAGAGCUCGAGAACAUCUUCGGAUGCAUAGGAGGCAGGCUUCGGUGGCGCGAUAGCGCCAACGUCCUCAACCUCCAAUGCAUCCCACCACAUGAUGAUGCCUGAAUAGCCUUGGUUUUUUG [G42U G120U] | -1.31 |
| GACCAAUCUGCCCUCAGAGCUCGAGAACAUCUUCGGAUGCAUAGGAGGCAGUCUUCGGUGGCGCGAUAGCGCCAACGUCCUCAACCUCCAAUGCAUCCCACCACCUGAUGAUGCCUGAAGAGCCUUGGUUUUUUG [G42U G52U A105C] | -6.66 |
| GACCAAUCUGCCCUCAGAGCUCGAGAACAUCUUCGGAUGCAUAGGAGGCAGGCUUCGGUGGCGCGAUAGCGCCAACGUCCUCAACCUCCAAUGCAUCCCACCACAAGAUGAUGCCUGAACAGCCUUGGUUUUUUG [G42U U106A G120C] | -2.14 |
| GACCAAUCUGCCCUCAGAGCUCGAGAACAUCUUCGGAUGCAUAGGAGGCAGGCUUCGGUGGCGCGAUAGCGCCAACGUCCUCAACCUCCAAUGCAUCCCACCACAUGAUGAUGCCUGAAGAGACUUGGUUUUUUG [G42U C123A] | -1.18 |
| GACCAAUCUGCCCUCAGAGCUCGAGAACAUCUUCGGAUGCAGCGGAGGCAGGCUUUGGUGGCGCGAUAGCGCCAACGCCCUCAACCUCCAAUGCAUCCCACCACAUGAUGAUGCCUGAAGAGCCAUGGUUUUUUG [A43C C56U U78C U125A] | -3.15 |
| GACCAAUCUGCCCUCAGAGCUCGAGAACAUCUUCGGAUGCAUAGGAGGCAGGCUUCGGUGGCGUGAUAGCGCCAACGUCCUCAACCUCCAAUGCAUCCCACCACAUGAUGAUGCCUGAAGAGCCUUGGUUUUUUG [G42U C64U] | -1.54 |
| GACCAAUCUGCCCUCAGAGCUCGAGAACAUCUUCGGAUGCAUAGGAGGCAGGCUUCGGUGGCGCGAUAGCGCUAACGUCCUCAACCUCCAAUGCAUCCCACCACAUGAUGAUGCCUAAAGAGCCUUGGUUUUUUG [G42U C73U G117A] | -3.05 |
| GACCAAUCUGCCCUCAGAGCUCGAGAACAUCUUCGGAUGCAGCGGCGGCAGGCUUCGGUGGUGCGAUAGCGCCAACGUCCUCAACCACCAAUGCAUCCCAUCACAUGAUGAUGCCUGAAGAGCCUUGGUUUUUUG [A43C A46C C62U U87A C101U] | -2.85 |
| GACCAAUCUGCCCUCAGAGCUCGAGAACAUCUUCGGAUGCAUAGGAAGCAGGCUUCGGUGGCGCGAUAGCGCCAACGUCCUCAACCUCCAAUGCAUCCCACCACAUGAUGAUGCCUGAAGAGCCUUGGUUUUUUG [G42U G47A] | -1.67 |
| GACCAAUCUGCCCUCAGAGCUCGAGAACAUCUUCGGAUGCAUAGGAUGCAGGCUUCGGUGGCGCGAUAGCGCCAACGUCCUCAACCUCCAAUGCAUCCCACCACAUGAUGAUGCCUGAAGAGGCUUGGUUUUUUG [G42U G47U C123G] | -1.61 |
| GACCAAUCUGCCCUCAGAGCUCGAGAACAUCUUCGGAUGCAUAGGAGGCAGGCUUCGGUGUCGCGAUAGCGCCAACGUCCUCAACCUCCAAAGAAUCCCACCACAUGAUGAUGCCUGAAGAGCCUUGGUUUUUUG [G42U G61U U92A C94A] | -3.57 |
| GACCAAUCUGCCCUCAGAGCUCGAGAACAUCUUCGGAUGCAUAGGAGGCAGGCUUCGGUGGCGCGAUAGCGCAAACGUCCUCAACCUCCAAUGCAUCCCACCACAUGAUGAUGCCUGAAGAGCCUUAGUUUUUUG [G42U C73A G127A] | -2.84 |
| GACCAAUCUGCCCUCAGAGCUCGAGAACAUCUUCGGAUGCAUAGGAGGCAGCCUACGGUGGCGCGAUAGCGCCAACGUCCUCAACCUCCAAUGCAUCCCACCACAUGAUGAUGCCUGAAGAGCCUUGGUUUUUUG [G42U G52C U55A] | -2.16 |
| GACCAAUCUGCCCUCAGAGCUCGAGAACAUCUUCGGAUGCAUAGGAGGCAGGCUUCGGUGGCGCGAUAGCGCCAACGUCCUCAACCUCCAAUGCAUCCCACCACAUGAUGAUGCCUGAAGAGCUUUGGUUUUUUG [G42U C124U] | -0.586 |
| GACCAAUCUGCCCUCAGAGCUCGAGAACAUCUUCGGAUGCAUAGGAGGCAGGCUGCGGUGGCGCGAUAGCGCCAACGUCCUCAACCUCCAAUGCAUCCCACCACAUGAUGAUGCCUAAAGAGCCUUGGUUUUUUG [G42U U55G G117A] | -3.02 |
| GACCAAUCUGCCCUCAGAGCUCGAGAACAUCUUCGGAUGCAUAGGAGGCAGGCUUCGGUGGCGCGAUAGCGCCAACGUCCUCAACCUCCAAUGCAUCCCAUCACAUGAUGAUGCCUGAAGAGCCUUGGUUUUUUG [G42U C101U] | -1.21 |
| GACCAAUCUGCCCUCAGAGCUCGAGAACAUCUUCGGAUGCAUAGGAGGCAGGCUUCCGUGGCGCGAUAGCGCCAACGUCCUCAACCUCCAAUGCAUCCCACCAUAUGAUGAUGCCUGAAGAGCCGUGGUUUUUUG [G42U G57C C104U U125G] | -1.31 |
| GACCAAUCUGCCCUCAGAGCUCGAGAACAUCUUCGGAUGCAUAGGAGGCAGGCUUCGGUAGCGCGAUAGCGCCAACGUCCUCAACCUCCAAUGCAUCCCACCACAUGAUGAUGCCUGAAGAGCCUUGGUUUUUUG [G42U G60A] | -2.16 |
| GACCAAUCUGCCCUCAGAGCUCGAGAACAUCUUCGGAUGCAGCGGAGGCAGGUUUCGGUGGCGCGAUAGCGCCAACGUCCUCAACCUCCAAUGCAUCCCACCACAUGAUGAUGCCUGAAGAGCCUUGGUUUUUUG [A43C C53U] | -2.24 |
| GACCAAUCUGCCCUCAGAGCUCGAGAACAUCUUCGGAUGCAUAGGAGGCAGGCUUUGGUGGCGCGAUAGCGCCAACGUCCUCAACUUCCAAUGCAUCCCACCACAUGAUGAUGCCUGAAGAGCCUUGGUUUUUUG [G42U C56U C86U] | -1.14 |
